According to patent US20170137511A1:

Molecular target: biotinylated human IL-15 (R&D Systems cat. no. NF150) (human) (UniProt P40933)
Assay: blocking ELISA: biotinylated human IL-15 (100 pM) binding to plate-bound IL-15Rα-Fc, antibody titrated, streptavidin-peroxidase, absorbance at 450 nm; the filing does not say in words which of the two partners the control antibody binds

Sequence of biotinylated human IL-15 (R&D Systems cat. no. NF150) (human) (P40933 49-162 limits assumed): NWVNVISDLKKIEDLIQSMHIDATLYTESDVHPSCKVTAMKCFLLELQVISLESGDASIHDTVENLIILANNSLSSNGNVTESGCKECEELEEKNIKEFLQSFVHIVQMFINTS

For “antibody known to block IL-15 binding to IL-15Rα (R&D Systems cat. no. NF150)”, the IC50 (read off the curve) was 10 µg/mL.
